Assay results as given in patent US20110052551A1, “CARDIAC MYOCYTE MORPHOGENIC COMPOSITIONS AND METHODS OF USE THEREFOR” (priority 2008, published 2011).
Entries after “also recorded” stand apart in the source; their conditions may differ.

Experiments:
Assay type in all cases: cell-based, mice
unfractionated BMMNCs [1] = test: Immunocytochemistry for Oct-4-positive BMMNCs; conditions: 21 days, 150 ng/ml
Description: Additionally, to assess the influence of Wnt3a on cellular differentiation, unfractionated BMMNCs were cultured separately in the presence of 150 ng/ml of recombinant Wnt3a protein under the same conditions used to culture unfractionated BMMNCs, using pcDNA3/293 cells containing the empty vector as controls (see FIG. 9A).
Immunocytochemistry. Cells were fixed on glass cover-slides with 4% paraformaldehyde for 20 minutes at 4° C. Cells were washed four times and permeabilized with BD PERM/WASH™ (containing saponin; BD Biosciences, San Jose, Calif., United States of America). For immunostaining, separate preparations of BD PERM/WASH™ containing primary monoclonal antibodies against either cardiac troponin T (cTnT; Santa Cruz Biotechnology, Santa Cruz, Calif., United States of America) or cardiac myosin heavy chain (cMyHC; Novus Biologicals, Inc., Littleton, Colo., United States of America) or connexin-43 or Oct-4 were prepared; all primary antibodies, save cMyHC, were purchased from Santa Cruz Biotechnology. Each preparation also contained primary monoclonal antibodies against nestin, glial fibrillary acidic protein (GFAP), CD11B, Gr-1 (myeloid lineage markers), the CD45 epitope, myogenin […]

unfractionated BMMNCs [2] = test: Proliferation of unfractionated BMMNCs (Trypan blue cell count); conditions: cultures initiated with 10^4 cells
Description: Assessment of cellular proliferation. To study proliferation within each experimental group, unfractionated BMMNCs (n=1×10^4) were cultured as above in separate experiments (see FIG. 9A). Cells were monitored by phase contrast microscopy during culture in a humidified 5% CO2 incubator at 37° C. for up to 21 days. The medium was replenished every 6 days and expanded cells were harvested by trypsinization and gentle resuspension on days 8, 16, and 21. Cell number and viability was determined by Trypan blue staining, and the fold-increase in cell number over time was analyzed.

unfractionated BMMNCs [3] = test: qRT-PCR of Wnt3a and β-catenin expression in cultured BMMNCs; conditions: 21 days, relative to baseline
Description: Assessment of mRNA expression by quantitative real-time RT-PCR (qRT-PCR). All qRT-PCR reagents and primers were purchased from Qiagen Inc. (Valencia, Calif., United States of America). Prior to mRNA extraction, cell number was determined and calculated by Trypan blue exclusion. cDNA was generated from freshly isolated (designated as baseline) and cultured unfractionated BMMNCs at days 0, 3, 7, and 21 (see FIG. 9A) using QUANTISCRIPT REVERSE TRANSCRIPTASE™ (Qiagen Inc., Valencia, Calif., United States of America) contained in RT master mix of Cell to cDNA kits according to manufacturer's protocol. […]
To avoid amplification of contaminating DNA, all validated qRT-PCR primers were designed to cross […] sequences within the cDNA to be amplified. Quantitative qRT-PCR analysis was performed in an ABI Prism 7900H sequence detection system (Applied Biosystems, Foster City, Calif.) using QUANTITECT™ SYBR® Green Real Time PCR kits. Each 50 μl qRT-PCR reaction contained 2 μl (approximately 50 ng) of cDNA, 5 μl of 1× primer mix (containing approximately 500 nM sense and anti-sense primers) and 25 μl of 2× QUANTITECT™ SYBR® Green master mix. […]
The PCR product level is calculated from the threshold cycle (Ct). That is, the amplification cycle number at which exponential PCR-generated gene-specific fluorescence is first detected (above a fixed threshold level). […]

B1: Wnt3a: recombinant Wnt3a protein, canonical Wnt, used at 150 ng/ml (protein, UniProt P56704 19-352, looked up)
Protein Wnt-3a: SYPIWWSLAVGPQYSSLGSQPILCASIPGLVPKQLRFCRNYVEIMPSVAEGIKIGIQECQHQFRGRRWNCTTVHDSLAIFGPVLDKATRESAFVHAIASAGVAFAVTRSCAEGTAAICGCSSRHQGSPGKGWKWGGCSEDIEFGGMVSREFADARENRPDARSAMNRHNNEAGRQAIASHMHLKCKCHGLSGSCEVKTCWWSQPDFRAIGDFLKDKYDSASEMVVEKHRESRGWVETLRPRYTYFKVPTERDLVYYEASPNFCEPNPETGSFGTRDRTCNVSSHGIDGCDLLCCGRGHNARAERRREKCRCVFHWCCYVSCQECTRVYDVHTCK
number of Oct-4-positive BMMNCs compared with untreated control (unfractionated BMMNCs [1]): marked increase; also recorded: a much greater number | increase in cell number (unfractionated BMMNCs [2]; day 16): 110±0.1 fold | increase in cell number (unfractionated BMMNCs [2]; day 21): 297±0.1 fold | increase in β-catenin expression (unfractionated BMMNCs [3]): 183.4±0.3 fold
